Measurements as given in paper PMC7618045, “Outer membrane utilisomes mediate oligosaccharide uptake in gut Bacteroidetes” (Nature, 2023).

B1: SusC^lev (natural protein, B. thetaiotaomicron, UniProt Q8A6W3 26-1041, looked up)
chain: GQNITVKGNVTSKTDGQPIIGASVVETTATTNGTITDFDGNFTLSVPVNSTLKITYIGYKPVTVKAAAIVNVLLEEDTQMVDEVVVTGYTTQRKADLTGAVSVVKVDEIQKQGENNPVKALQGRVPGMNITADGNPSGSATVRIRGIGTLNNNDPLYIIDGVPTKAGMHELNGNDIESIQVLKDAASASIYGSRAANGVIIITTKQGKKGQIKINFDASVSASMYQSKMNVLNTEQYGRAMWQAYVNDGENPNGNALGYAYNWGYNADGNPVLYGMTLSKYLDSKNTMPVADTDWFDEITRTGVIQQYNLSVSNGSEKGSSFFSLGYYKNLGVIKDTDFDRFSARMNSDYKLIDDILTIGQHFTLNRTSEVQAPGGIIETALDIPSAIPVYASDGSWGGPVGGWPDRRNPRAVLEYNKDNRYTYWRMFGDAYVNLTPFKGFNLRSTFGLDYANKQARYFTYPYQEGTQTNNGKSAVEAKQEHWTKWMWNAIATYQLEVGKHRGDVMIGMELNREDDSHFSGYKEDFSILTPDYMWPDAGSGTAQAYGAGEGYSLVSFFGKMNYSYADRYLLSLTLRRDGSSRFGKNHRYATFPSVSLGWRITQENFMKELTWLDDLKLRASWGQTGNQEISNLARYTIYAPNYGTTDSFGGQSYGTAYDITGSNGGGVLPSGFKRNQIGNDNIKWETTTQTNVGIDFSLFKQSLYGSLEYYYKKATDILTEMAGVGVLGEGGSRWINSGAMKNQGFEFNLGYRNKTAFGLTYDLNGNISTYRNEILELPETVAANGKFGGNGVKSVVGHTYGAQVGYIADGIFKSQDEVDNHATQEGAAVGRIRYRDIDHNGVIDERDQNWIYDPTPSFSYGLNIYLEYKNFDLTMFWQGVQGVDIISDVKKKSDFWSASNVGFLNKGTRLLNAWSPTNPNSDIPALTRSDTNNEQRVSTYFVENGSFLKLRNIQLGYTVPAVISKKMRMDRLRFYCSAQNLLTIKSKNFTGEDPENPNFSYPIPVNITFGLNIGF
notes: SusC^lev, the TonB-dependent outer membrane transporter (SusC) of the levan PUL of B. thetaiotaomicron; Two copies stand in the utilisome (SusC2D2 core); written here without a tag; also called levan SusC; source: endogenous, B. thetaiotaomicron grown on fructose; co-purified from detergent-solubilised membranes (LDAO sample; DDM sample: Ni2+ column, SEC)

Tests used:
[1] = target: SusC^dex (B. thetaiotaomicron); experiment: cryo-EM structure; dextran utilisome (Bt3087-Bt3090), 0.05 mg/ml in 10 mM HEPES, 100 mM NaCl, pH 7.5, 0.03% DDM; heptamers, hexamers and pentamers; 3.1 Å consensus; AlphaFold2 models of SusD^dex, GH^dex and SGBP^dex docked into the map
[2] = target: the molecule itself; experiment: cryo-EM structure; apo (substrate-free) levan utilisome, 3 mg/ml in 10 mM HEPES pH 7.5, 100 mM NaCl, 0.03% DDM; ~6 Å classes, 3.5 Å focused C2 refinement without SusD

Molecule	stoichiometry N [1]	stoichiometry N [2]
SusC^dex (natural protein)	2	
B1		2
